PMC12339401 (2025)

Columns and labels:
NIX(1–182)-GST = NIX(1–182)-GST (Homo sapiens (Human), UniProt O60238); test: microscopy-based bead assay
[1] = target: GST-FAM134C (residues 250–466) (Homo sapiens (Human), UniProt Q86VR2); test: microscopy-based bead assay
Sequence of GST-FAM134C (residues 250–466) (Q86VR2 250-466): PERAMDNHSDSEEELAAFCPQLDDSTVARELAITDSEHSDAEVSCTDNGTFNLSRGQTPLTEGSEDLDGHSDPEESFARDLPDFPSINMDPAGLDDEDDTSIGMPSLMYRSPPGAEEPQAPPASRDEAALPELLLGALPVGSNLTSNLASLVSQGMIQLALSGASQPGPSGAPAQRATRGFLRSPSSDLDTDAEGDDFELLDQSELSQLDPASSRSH

Sequence of NIX(1–182)-GST (O60238 1-182): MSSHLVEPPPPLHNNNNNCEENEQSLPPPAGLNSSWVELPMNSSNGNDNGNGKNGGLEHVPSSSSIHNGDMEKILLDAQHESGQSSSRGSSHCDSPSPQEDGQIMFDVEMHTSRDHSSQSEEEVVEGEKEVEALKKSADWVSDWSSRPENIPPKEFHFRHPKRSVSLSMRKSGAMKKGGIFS

Row | Binder | binding result (NIX(1–182)-GST) | binding result [1]
1 | mCherry-tagged WIPI1 (protein) MEAEAADAPPGGVESALSCFSFNQDCTSLATGTKAGYKLFSLSSVEQLDQVHGSNEIPDVYIVERLFSSSLVVVVSHTKPRQMNVYHFKKGTEICNYSYSSNILSIRLNRQRLLVCLEESIYIHNIKDMKLLKTLLDIPANPTGLCALSINHSNSYLAYPGSLTSGEIVLYDGNSLKTVCTIAAHEGTLAAITFNASGSKLASASEKGTVIRVFSVPDGQKLYEFRRGMKRYVTISSLVFSMDSQFLCASSNTETVHIFKLEQVTNSRPEEPSTWSGYMGKMFMAATNYLPTQVSDMMHQDRAFATARLNFSGQRNICTLSTIQKLPRLLVASSSGHLYMYNLDPQDGGECVLIKTHSLLGSGTTEENKENDLRPSLPQSYAATVARPSASSASTVPGYSEDGGALRGEVIPEHEFATGPVCLDDENEFPPIILCRGNQKGKTKQS | binds | 
2 | GFP-FIP200 C-terminal region (CTR), residues 1429–1591 (protein) ADEGRVDSAMETSMMSVQENIHMLSEEKQRIMLLERTLQLKEEENKRLNQRLMSQSMSSVSSRHSEKIAIRDFQVGDLVLIILDERHDNYVLFTVSPTLYFLHSESLPALDLKPASGASRRPWVLGKVMEKEYCQAKKAQNRFKVPLGTKFYRVKAVSWNKKV | no binding | binds
3 | GFP-tagged TBK1 (protein) MQSTSNHLWLLSDILGQGATANVFRGRHKKTGDLFAIKVFNNISFLRPVDVQMREFEVLKKLNHKNIVKLFAIEEETTTRHKVLIMEFCPCGSLYTVLEEPSNAYGLPESEFLIVLRDVVGGMNHLRENGIVHRDIKPGNIMRVIGEDGQSVYKLTDFGAARELEDDEQFVSLYGTEEYLHPDMYERAVLRKDHQKKYGATVDLWSIGVTFYHAATGSLPFRPFEGPRRNKEVMYKIITGKPSGAISGVQKAENGPIDWSGDMPVSCSLSRGLQVLLTPVLANILEADQEKCWGFDQFFAETSDILHRMVIHVFSLQQMTAHKIYIHSYNTATIFHELVYKQTKIISSNQELIYEGRRLVLEPGRLAQHFPKTTEENPIFVVSREPLNTIGLIYEKISLPKVHPRYDLDGDASMAKAITGVVCYACRIASTLLLYQELMRKGIRWLIELIKDDYNETVHKKTEVVITLDFCIRNIEKTVKVYEKLMKINLEAAELGEISDIHTKLLRLSSSQGTIETSLQDIDSRLSPGGSLADAWAHQEGTHPKDRNVEKLQVLLNCMTEIYYQFKKDKAERRLAYNEEQIHKFDKQKLYYHATKAMTHFTDECVKKYEAFLNKSEEWIRKMLHLRKQLLSLTNQCFDIEEEVSKYQEYTNELQETLPQKMFTASSGIKHTMTPIYPSSNTLVEMTLGMKKLKEEMEGVVKELAENNHILERFGSLTMDGGLRNVDCL | no binding | 
4 | mCherry-WIPI3 (protein) not shown | no binding | 
